Data as given in IntAct's records for PubMed 21926999.

Biological target: ARHGAP24, Q8N264-1
Sequence (Q8N264 whole entry): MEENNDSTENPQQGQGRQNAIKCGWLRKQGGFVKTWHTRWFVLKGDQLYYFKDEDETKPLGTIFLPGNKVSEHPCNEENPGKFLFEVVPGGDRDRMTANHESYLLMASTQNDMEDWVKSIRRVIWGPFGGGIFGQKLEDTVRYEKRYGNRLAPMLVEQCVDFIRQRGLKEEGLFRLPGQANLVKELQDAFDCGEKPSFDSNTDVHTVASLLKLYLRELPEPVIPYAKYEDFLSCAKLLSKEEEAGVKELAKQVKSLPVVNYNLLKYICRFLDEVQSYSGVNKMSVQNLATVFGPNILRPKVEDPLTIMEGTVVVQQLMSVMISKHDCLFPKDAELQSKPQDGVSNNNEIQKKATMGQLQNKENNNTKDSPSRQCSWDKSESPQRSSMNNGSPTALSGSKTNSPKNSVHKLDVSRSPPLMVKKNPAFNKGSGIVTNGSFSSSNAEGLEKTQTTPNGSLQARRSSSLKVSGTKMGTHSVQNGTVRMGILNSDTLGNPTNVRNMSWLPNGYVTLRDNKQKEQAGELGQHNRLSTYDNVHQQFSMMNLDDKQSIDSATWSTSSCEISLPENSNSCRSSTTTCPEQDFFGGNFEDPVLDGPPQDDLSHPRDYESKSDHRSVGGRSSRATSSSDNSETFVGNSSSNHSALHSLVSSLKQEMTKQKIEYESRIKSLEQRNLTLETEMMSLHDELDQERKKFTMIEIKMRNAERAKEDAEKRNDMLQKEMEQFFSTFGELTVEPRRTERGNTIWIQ

- effect of a mutation on the interaction: disrupting interaction
Substance: Filamin-A (Homo sapiens), P21333 M2474E
